Experimental data taken from patent US20150030595A1 (ANTIBODY AND RECEPTOR THERAPEUTICS, published 2015).
One block for each binder: values may come before it.

B1: ACVR2B-Fc fusion protein (Fc fusion, not shown: a dimerising Fc or GST; small tags and cut ends)
chain: SGRGEAETRECIYYNANWELERTNQSGLERCEGEQDKRLHCYASWRNSSGTIELVKKGCWLDDFNCYDRQECVATEENPQVYFCCCEGNFCNERFTHLPEAGGPEVTYEPPPTAPTLLT
notes: also called water-soluble ACVR2B
B3: DLK1-Fc fusion protein (Fc fusion, not shown: a dimerising Fc or GST)
chain: AECFPACNPQNGFCEDDNVCRCQPGWQGPLCDQCVTSPGCLHGLCGEPGQCICTDGWDGELCDRDVRACSSAPCANNGTCVSLDDGLYECSCAPGYSGKDCQKKDGPCVINGSPCQHGGTCVDDEGRASHASCLCPPGFSGNFCEIVANSCTPNPCENDGVCTDIGGDFRCRCPAGFIDKTCSRPVTNCASSPCQNGGTCLQHTQVSYECLCKPEFTGLTCVKKRALSPQQVTRLPSGYGLAYRLTPGVHELPVQQPEHRILKVSMKELNKKTPLLTEG
notes: also called DLK-Fc

Legend:
[1] = target: T1, EGF5-6-Fc (DLK1 deletion mutant without the 1st to 4th EGF-like repeat domains) (human, UniProt P80370 170-302); experiment: SPR (ProteOn XPR36), ACVR2B-Fc coated on the chip, Fc channel as reference
T1 construct: also called 5M-Fc; not shown: human antibody Fc region of the pYK602-Fc vector and any SfiI-junction residues
T1 sequence: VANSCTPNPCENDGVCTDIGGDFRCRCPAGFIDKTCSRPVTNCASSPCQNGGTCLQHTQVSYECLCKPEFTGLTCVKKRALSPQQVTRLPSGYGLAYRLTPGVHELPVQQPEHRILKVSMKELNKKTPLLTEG
Procedure: (§1) This experiment was performed using a ProteOn XPR36 instrument (Bio-Rad). First, a sensor chip (GLC) was activated by reacting 0.1 M EDC and 0.025 M sulfo-NHS (Bio-Rad) for 60 seconds. […] The coating procedure was completed by allowing 1 M ethanolamine-HCl) (pH 8.5) to flow at the coated chip for 200 seconds. To test the bound proteins, the chip was rotated at an angle of 90°, and stabilized by allowing DPBST (PBS with 0.005% Tween 20) to flow on the chip for 30 minutes.

[2] = target: T2, C-terminally active myostatin (R&D systems) (UniProt O14793 267-375, limits assumed); experiment: ELISA on coated myostatin (1 ug/ml), Fc-HRP
T2 construct: mature
T2 sequence (looked up): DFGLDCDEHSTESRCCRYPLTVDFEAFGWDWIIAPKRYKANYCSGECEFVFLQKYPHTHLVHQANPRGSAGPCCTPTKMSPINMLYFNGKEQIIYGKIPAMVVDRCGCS

[3] = target: B1; experiment: SPR (ProteOn XPR36), ACVR2B-Fc coated
Procedure: as §1

[4] = target: T2, C-terminally active myostatin (R&D …); experiment: ELISA on coated myostatin, one site binding (hyperbola) fit
Procedure: An immunoplate was coated overnight with 1 μg/ml of C-terminally active myostatin (R&D systems) at 4° C., washed three times with 0.05% PBST Tween 20, and then blocked with 4% skim milk/0.05% PBST Tween 20 at room temperature for 30 minutes. […] Finally, when the reaction was blocked with 2.5 M H₂SO₄, the optical densities were measured and analyzed at 420 nm.
Based on the experiment, a KD value was also determined by analyzing one site binding (hyperbola) using a GraphPad Reism 4 program.

[5] = target: B1; experiment: SPR (ProteOn XPR36), ACVR2B-Fc coated, in the presence of B09
[6] = target: B3; experiment: SPR (ProteOn XPR36)
[7] = target: T2, C-terminally active myostatin (R&D …); experiment: ELISA, coating 1 ug/ml myostatin, binding 10 nM, anti-human Fc HRP
[8] = target: B1; experiment: SPR (ProteOn XPR36), ACVR2B-Fc coated on the chip, Fc channel as reference
Procedure: as §1

- binding result [2]: no binding (tested: 1 nM)
B2: ACVR1A-Fc (Fc fusion, UniProt Q04771 21-124, looked up)
chain: MEDEKPKVNPKLYMCVCEGLSCGNEDHCEGQQCFSSLSINDGFHVYQKGCFQVYEQGKMTCKTPPSPGQAVECCQGDWCNRNITAQLPTKGKSFPGTQNFHLEV
notes: Control; origin not described; not shown: Fc; not described

- Kd [6]: 0.0109 nM
- koff [6]: 6.49e-05 s⁻¹
- kon [6]: 3.41e+06 M⁻¹ s⁻¹
B4: human antibody B09 (full-length IgG) (antibody, V domains shown)
VH: QMQLVESGGRLVRPGGSLRLSCAASGFPFTSYAMNWVRQTPGKGLEWVSTITATSGKTYYADSVKGRFTISRDNSRNTLFLQMNSLRAEDTAVYYCVRGESCSGGACSDFDYWGQGALVTVSS
VL: QLVLTQPASVSGSPGQSVTISCTGTSSDIGRYNRVSWYQHHPGKAPKLILNDVTTRPSGFSNRFSGSKSGNTASLTISGLQAEDEADYSCGSYAGSYTYVFGTGTKVTVL
notes: Converted into full-length IgG with pNATAB H and pNATAB L vectors; also called B09 antibody; DLK1 antibody B09

- binding result [7]: binds
- binding result [8]: no binding
B5: JM-Fc (juxtamembrane region of DLK1, all six EGF-like repeat domains deleted) (Fc fusion)
chain: KKRALSPQQVTRLPSGYGLAYRLTPGVHELPVQQPEHRILKVSMKELNKKTPLLTEG
notes: also called juxtamembrane region (JM); not shown: human antibody Fc of the pYK602-Fc vector and the SfiI junction residues between JM and Fc

Further lines, the binder ahead of its results:

Binder: B1
- binding result [1]: binds

Binder: B3
- Kd [3]: 1.31 nM
- koff [3]: 0.000434 s⁻¹
- kon [3]: 331000 M⁻¹ s⁻¹
- Kd [4]: 22.8 nM
- Kd [5]: 0.407 nM
- koff [5]: 0.000255 s⁻¹
- kon [5]: 626000 M⁻¹ s⁻¹
